From the supplement of paper PMC10724198
± gives the standard deviation of the averaged measurements.

Tested on: Saccharomyces cerevisiae
Assay: protein stability index of tFT-peptide fusion (C-terminal peptide) (PSI (0-1 scale)); higher = more stable (slower turnover)
Settings: genetic background: wild type; temperature: 30 C
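Note: PSI is a weighted mean of sequencing reads over stability bins, variants kept only with over 10 reads, mCherry proximal and sfGFP distal, peptide attached via GGGS linker.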

Sequence	protein stability index
LSISGSVHILKD	0.733 ± 0.024
LSLASTGVDSGG	0.743 ± 0.03
LSLHCIYQQIFR	0.822 ± 0.12
LSLPSLLLRLSL	0.644 ± 0.023
LSPCSDFSTFDA	0.771 ± 0.12
LSPLPRLQPASP	0.655 ± 0.071
LSPLTPAPLPPP	0.6675 ± 0.0058
LSPPPPRPTLQF	0.731 ± 0.0092
LSPSPTSHSRLL	0.589 ± 0.024
LSPSSSLTYLSF	0.724 ± 0.07
LSPVRRAPCPLG	0.6905 ± 0.0019
LSRLPPTLPRTP	0.699 ± 0.18
LSRPPASPPHPP	0.71468 ± 0.00055
LSRTPLPLPPPS	0.705 ± 0.019
LSSLLPFPPLPC	0.685 ± 0.082
LSSRSDVLTYFV	0.639 ± 0.022
LSTCHSPSLPAT	0.739 ± 0.049
LSTHAPPTRLRL	0.677 ± 0.016
LSTPPLPPPPPP	0.689 ± 0.058
LSVAFFILRVPL	0.573 ± 0.071
LSVGLVPFRWRV	0.6584 ± 0.0017
LSVNAGWLQLCA	0.561 ± 0.018
LSVPVGIRPGRC	0.702 ± 0.018
LSWDVWWYFLSV	0.594 ± 0.0063
LTLPPRPPSPPS	0.675 ± 0.08
LTSATSSGPPHP	0.7232 ± 0.0029

Sequence	protein stability index
LTVVNFFPLGSP	0.67 ± 0.064
LVDKGSADVLDD	0.632 ± 0.048
LVFLRDFFSLFS	0.71 ± 0.017
LVFSSVVISCDI	0.528 ± 0.0092
LVFVPTLFPPPG	0.662 ± 0.053
LVFYSSLPNFSR	0.6815 ± 0.0024
LVGRRGVVGIVP	0.63 ± 0.075
LVGWVCRERELG	0.718 ± 0.06
LVHHPCNTPRVP	0.749 ± 0.018
LVIKNVWHESTY	0.709 ± 0.054
LVKLGSTLSGVG	0.582 ± 0.026
LVLFSRCSPFFL	0.659 ± 0.024
LVLVASVGVGRV	0.556 ± 0.057
LVSEGKRLDVVF	0.581 ± 0.076
LVSGRRWMLGSG	0.6451 ± 0.0023
LVSQLLALCLSV	0.5358 ± 0.00089
LVVALGFDDRAC	0.623 ± 0.027
LVVLGVRGGGGG	0.701 ± 0.047
LWDQFAVSCFGG	0.745 ± 0.016
LWGAGAGPEDVG	0.6983 ± 0.0028
LWGAIGHGNAGP	0.684 ± 0.029
LWGFVEAIGSVL	0.705 ± 0.18
LWGGGVGRVRGV	0.658 ± 0.022
LWGMSDQGGGFR	0.611 ± 0.083
LWLPSTSLIPLI	0.641 ± 0.018
LWRSRSCSGHSF	0.651 ± 0.053

Sequence	protein stability index
LYDAALHTKIFR	0.634 ± 0.012
LYDCQHTFILSR	0.643 ± 0.047
LYHCFRCYYMPW	0.637 ± 0.033
LYIHFIRSYPTI	0.6354 ± 0.0036
LYIYSPFGLFAF	0.562 ± 0.0082
LYPRLAPPTPPS	0.686 ± 0.026
LYTTLCLRSPPH	0.671 ± 0.026
LYVIGGTDLVGG	0.72 ± 0.04
MCNPAYVTSGVI	0.6987 ± 0.0054
MCPRFCPPLRSF	0.686 ± 0.084
MCWFDVSEWGLG	0.754 ± 0.091
MFVRRTDRGGIV	0.7312 ± 0.0069
MGCSARLPLLSS	0.7215 ± 0.0016
MGDGRRMDGVWG	0.6 ± 0.03
MGGGGGLGGGDG	0.613 ± 0.072
MGGYLFLHVGYV	0.614 ± 0.062
MGIKSCSSTCVT	0.857 ± 0.2
MGTRRVGRQGWG	0.708 ± 0.031
MINYGLARKKAR	0.733 ± 0.02
MKKIGNKLKKEK	0.657 ± 0.099
MKKKTTKTKIKK	0.7205 ± 0.0051
MLGGGGGVRVLG	0.706 ± 0.011
MLYFSGLQVTIL	0.622 ± 0.0075
MPTSYDGCDRGH	0.713 ± 0.011
MRCQFDGAVGVC	0.663 ± 0.074
MRKGKGGGPRRR	0.699 ± 0.023

Sequence	protein stability index
MRPRTSKKPQLE	0.744 ± 0.044
MRRKKSGPEYQR	0.678 ± 0.059
MRSRWFAREFGK	0.659 ± 0.07
MSCLSDFPVCFL	0.726 ± 0.037
MSGVWLWVGGGG	0.73 ± 0.078
MSVRGGEGVVGE	0.614 ± 0.025
MSWLGLGLWSVF	0.808 ± 0.069
MVLTVIHFDCDI	0.596 ± 0.014
MVTGELVQLLLV	0.528 ± 0.0048
MWVGLWSVGLCG	0.717 ± 0.011
MYAWPISPRPLL	0.738 ± 0.052
MYTNYLYDVAVE	0.597 ± 0.044
NARPSPRSHSLE	0.6921 ± 0.0065
NDGLKVLKETSP	0.675 ± 0.027
NDKPKKKYRKTR	0.64 ± 0.018
NEVDSRGWTTLA	0.59 ± 0.021
NFAIYPTLYKYD	0.667 ± 0.016
NFDNGAGLNRGG	0.6733 ± 0.0059
NFEVHRCGISLR	0.681 ± 0.0075
NGDRGQWGMNQR	0.708 ± 0.028
NGLLRPALVPNY	0.693 ± 0.012
NGLRILICNTTP	0.697 ± 0.03
NGPYKAGSIVLI	0.664 ± 0.027
NGRENVHEWQRG	0.711 ± 0.018
NGRTSRVMKDRK	0.6793 ± 0.0035
NGSLRVVSGGFC	0.63 ± 0.048

Sequence	protein stability index
NGSPFFFNRLFT	0.702 ± 0.033
NGTGGGSSLAFG	0.644 ± 0.019
NGWGKWTKTVCQ	0.646 ± 0.02
NHIASQASRRGR	0.637 ± 0.069
NHPCPFSELPQL	0.758 ± 0.11
NIKHTDKPNHIN	0.609 ± 0.011
NIKKKINNTVKN	0.666 ± 0.0073
NIMSSFFLTFHR	0.719 ± 0.017
NINYETNKQTDR	0.668 ± 0.022
NISSFKHVLAYK	0.624 ± 0.06
NKIVKYSKIRYK	0.678 ± 0.018
NKKKKENTKKRK	0.721 ± 0.18
NKKKKKKRKRVK	0.701 ± 0.049
NKKKKKKRNGAP	0.658 ± 0.028
NKKKNKKKNKKK	0.676 ± 0.032
NKKKNLRYKHRI	0.643 ± 0.1
NKNDINRMVQVS	0.6754 ± 0.0062
NKNNCKLISEKF	0.721 ± 0.026
NKNNITKKRKKD	0.749 ± 0.064
NKNRKNQNKGKR	0.743 ± 0.069
NKQKKKKSTKRN	0.704 ± 0.029
NKVISETKKLDN	0.64983 ± 0.00019
NLAGLVREYSGY	0.684 ± 0.011
NLGRGYLVFRGM	0.709 ± 0.062
NLLPFLGPLPRS	0.781 ± 0.067
NLQKTRNRRTVE	0.643 ± 0.011

Sequence	protein stability index
NNANDKKNKRKK	0.664 ± 0.044
NNEETIKQKNLQ	0.702 ± 0.025
NNRVVRGRKWGG	0.682 ± 0.015
NPFLHQSMGQLT	0.724 ± 0.078
NPGLGLSCPSPP	0.701 ± 0.043
NQERYKKIRSKQ	0.714 ± 0.054
NRAVTRKRKEEK	0.664 ± 0.03
NRGRIRARVNEA	0.708 ± 0.07
NRGTRQIIIKKK	0.653 ± 0.038
NRLPGNLKKKDN	0.687 ± 0.019
NRLRNAGEPTND	0.782 ± 0.069
NRYKINHRIKCK	0.576 ± 0.032
NRYRILDKLRRK	0.6618 ± 0.0026
NSHRYDSNIPDS	0.685 ± 0.057
NSLGRRRSYPTL	0.839 ± 0.039
NSLLSFLPDPFH	0.749 ± 0.0096
NSRASHPTNQII	0.789 ± 0.054
NSSKHAWAWPVP	0.68 ± 0.029
NSYVGSSTYVIV	0.692 ± 0.033
NTNNKKNSKHSN	0.661 ± 0.02
NTQPSNRTQRKY	0.669 ± 0.1
NTTQKKKGGRKA	0.747 ± 0.15
NVIGGGRSAGLV	0.609 ± 0.053
NVKIDNKQRKNK	0.746 ± 0.019
NVNAVAVILGAC	0.562 ± 0.0061
NVRKWSREDQTG	0.6679 ± 0.00079

Sequence	protein stability index
NWARLGVRMGAA	0.66 ± 0.013
NWKNENGRELEE	0.7 ± 0.029
NYLPLCCSMLAG	0.588 ± 0.015
PAAIARNPLPHR	0.605 ± 0.075
PAALPHTPSAPY	0.666 ± 0.04
PAASHPPRWPRR	0.75 ± 0.049
PACFESCGLWGF	0.75 ± 0.039
PACSFPPPPFSA	0.703 ± 0.1
PACSPLLAARVT	0.711 ± 0.061
PADAPPPTRPEA	0.724 ± 0.032
PAFVPPFTPATP	0.76 ± 0.033
PAGLITRSWNLV	0.565 ± 0.028
PALRTTRCLPLP	0.703 ± 0.019
PAPCPLFVPSPT	0.655 ± 0.012
PAPLLPLSPPRP	0.709 ± 0.042
PAPLPADTFVEC	0.668 ± 0.065
PAPLPPRPTSLP	0.711 ± 0.011
PAPPPPLLPRSL	0.727 ± 0.011
PAPPPPPPPPLH	0.701 ± 0.083
PAPPPPPTDTPP	0.623 ± 0.0095
PAPPPVLDTPLP	0.6018 ± 0.0057
PAPRPLSPPPTF	0.699 ± 0.0091
PARCRPSSPAPL	0.726 ± 0.016
PARLLIEFPSYS	0.684 ± 0.021
PARPIPFPQPCY	0.538 ± 0.032
PARPLFAPSFFT	0.699 ± 0.047

Sequence	protein stability index
PASSAPLSLLPC	0.655 ± 0.084
PASSSFVCAVSR	0.783 ± 0.091
PATRHSRLPPAS	0.67 ± 0.018
PATRIDAFPPVP	0.685 ± 0.022
PAVARPLGPPPY	0.714 ± 0.045
PAVRGEMYLGVG	0.685 ± 0.014
PCAFSLPPLQIP	0.7 ± 0.012
PCGGGGRECVRG	0.808 ± 0.1
PCLPPPLRLPPN	0.631 ± 0.054
PCLVLSLYSDLP	0.68 ± 0.032
PCPPAPPRFLLR	0.732 ± 0.016
PCPPRSLPPPTS	0.835 ± 0.16
PCSSFPTFPRRL	0.715 ± 0.017
PCVCLRWTGKAF	0.532 ± 0.031
PCVPSRTISLPE	0.684 ± 0.031
PDGGFSSVVSLR	0.686 ± 0.076
PDRQNLSRPEKD	0.702 ± 0.0092
PDRSLASPPTTR	0.711 ± 0.069
PDSLCLSPPSLP	0.686 ± 0.017
PDTCRYTAFHFH	0.586 ± 0.02
